# Source: patent US20240409935A1, “Atg8ylation coordinates stress granule formation and mTOR inactivation in response to lysosomal damage” (priority 2023, published 2024)
# Target: T1, GST-tagged NUFIP2 (Homo sapiens (Human)) (UniProt Q7Z417)
# T1 sequence: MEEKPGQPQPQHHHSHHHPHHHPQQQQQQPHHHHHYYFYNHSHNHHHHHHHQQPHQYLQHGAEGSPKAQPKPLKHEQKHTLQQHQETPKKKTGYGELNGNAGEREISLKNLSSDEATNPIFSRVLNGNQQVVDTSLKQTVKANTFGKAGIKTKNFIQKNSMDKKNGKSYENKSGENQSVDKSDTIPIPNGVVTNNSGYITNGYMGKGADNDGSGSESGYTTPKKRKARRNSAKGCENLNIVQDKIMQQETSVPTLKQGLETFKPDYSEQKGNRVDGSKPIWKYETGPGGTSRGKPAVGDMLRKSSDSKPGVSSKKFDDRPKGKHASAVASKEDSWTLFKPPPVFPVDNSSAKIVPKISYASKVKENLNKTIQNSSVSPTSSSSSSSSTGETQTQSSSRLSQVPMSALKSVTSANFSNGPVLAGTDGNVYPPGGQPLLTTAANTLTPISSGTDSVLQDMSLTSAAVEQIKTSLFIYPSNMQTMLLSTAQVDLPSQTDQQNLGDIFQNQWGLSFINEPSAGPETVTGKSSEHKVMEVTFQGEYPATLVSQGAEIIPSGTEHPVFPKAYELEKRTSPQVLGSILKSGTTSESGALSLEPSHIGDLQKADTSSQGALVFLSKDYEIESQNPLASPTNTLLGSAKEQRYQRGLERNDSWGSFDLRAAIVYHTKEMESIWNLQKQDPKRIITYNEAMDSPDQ
# Experiment: GST pulldown of in vitro translated radiolabeled Myc-G3BP1 with GST-NUFIP2
# Myc-tagged G3BP1 (in vitro translated and radiolabeled), sequence (Q13283 whole entry): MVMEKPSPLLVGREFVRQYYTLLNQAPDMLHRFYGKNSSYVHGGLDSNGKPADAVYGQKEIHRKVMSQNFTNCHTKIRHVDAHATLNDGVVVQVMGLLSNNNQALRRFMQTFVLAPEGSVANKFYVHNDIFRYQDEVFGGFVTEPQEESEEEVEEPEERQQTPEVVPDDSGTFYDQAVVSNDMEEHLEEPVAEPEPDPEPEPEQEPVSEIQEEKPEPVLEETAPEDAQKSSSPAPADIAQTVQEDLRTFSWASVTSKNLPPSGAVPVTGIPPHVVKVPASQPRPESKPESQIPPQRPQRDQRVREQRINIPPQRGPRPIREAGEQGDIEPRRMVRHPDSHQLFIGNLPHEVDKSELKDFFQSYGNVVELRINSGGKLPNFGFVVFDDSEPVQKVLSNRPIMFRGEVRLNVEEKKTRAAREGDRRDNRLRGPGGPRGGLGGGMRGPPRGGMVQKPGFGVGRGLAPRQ
substance,measurement,value
Myc-tagged G3BP1 (in vitro translated and radiolabeled) (from UniProt Q13283 1-466),% binding (percent of the input bound),60%
